Reference: patent US8313920B2, “High-throughput assay for evaluating dipeptidyl peptidase I activity” (Janssen Research & Development, LLC, priority 2008, dated 2012)

Substrate: CC[C@H](C)[C@H](NC(=O)[C@H](CCC(=O)O)NC(=O)CN)C(=O)N[C@H](C(=O)NCC(=O)NCC(=O)N[C@H](C(=O)N[C@@H](CCC(=O)O)C(=O)N[C@@H](CS)C(=O)N[C@@H](CCCCN)C(=O)N1CCC[C@H]1C(=O)N[C@@H](Cc1c[nH]cn1)C(=O)N[C@@H](CO)C(=O)N[C@@H](CCCNC(=N)N)C(=O)N1CCC[C@H]1C(=O)N[C@@H](Cc1ccc(O)cc1)C(=O)N[C@@H](CCSC)C(=O)N[C@@H](C)C(=O)N[C@@H](Cc1ccc(O)cc1)C(=O)N[C@@H](CC(C)C)C(=O)O)[C@@H](C)O)[C@@H](C)CC
Experiment: Initial velocity analysis of DPPI with the 20-mer substrate, mass spectrometry
Format: biochemical, human
Conditions: other: 20-mer as DPPI substrate, about 2 nM DPPI, pH 7.0, about 27° C.
Protocol: FIG. 1. Initial velocity analysis for DPP1 kinetic constant in reaction with a 20-mer substrate (A) and a dipeptide substrate (B). (A) About 2 nM of DPPI was used in the reaction with the 20-mer substrate of […] (SEQ ID NO:1) and the reaction was monitored using a mass spectrometry system. (B) About 0.4 nM of DPP1 was used in the reaction with the dipeptide substrate of GR-α-methylcoumarin and the reaction was monitored using a rate-based format monitoring fluorescence at EM=460 nm and EX=380 nm. Initial rates are taken from kinetic data where less than 7% substrate turnover was achieved.
Once the rate of the substrate turnover under the initial velocity condition, the kinetic constants for DPPI and the peptide substrate are calculated using the following formula (I): Y=VMAX((X+Et+KM)−((((Et+X+KM)^2)−(4XEt))^0.5))/(2Et) wherein • Y is concentration of substrate turnover • X is substrate concentration • Et is DPPI concentration • KM is substrate concentration at ½ VMAX • VMAX is substrate turnover at substrate saturation
About 2 nM of DPPI was incubated with about 0.5, 1, 2, 4, 8, 16, 32, 64, 90, 128, 150 μM of the 20-mer substrate in the reaction buffer of 50 mM HEPES (pH 7.0), 100 mM NaCl, 0.005% Tween-20, and 2 mM of DTT or GSH. […]

B1: dipeptidyl peptidase I (DPPI) (Homo sapiens) (protein)
chain 1: not shown
chain 2: LPTSWDWRNVHGINFVSPVRNQASCGSCYSFASMGMLEARIRILTNNSQTPILSPQEVVSCSQYAQGCEGGFPYLIAGKYAQDFGLVEEACFPYTGTDSPCKMKEDCFRYYSSEYHYVGGFYGGCNEALMKLELVHHGPMAVAFEVYDDFLHYKKGIYHHTGLR
chain 3: not shown
notes: made in house; host or cells: Hi5 insect cells (baculovirus)
With B1 the Km was 62 µM.
